The source of these data is a protein production outcome set (Wang et al. 2014).
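Note: failed if final PepcDB status was selected cloned or expressed and not failed if soluble or beyond.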

The nature of the series: label from the status in PepcDB records.
Take “MWITQETWLKALPWNKKRYRSQIMEVICKHYTPLDIASQAIRTCWQSFEYSDDGGCKDKELIHRVGNIFRHSSTLEHLYYNFEIKGLSRGALQELSRHRIASLSVKSSRYTLRELKEVESFLPLNETNLERAKEFLVFVDNEKVNAMSVLALENLRILLSEHNIKNDLAKYAMPESYKTHLAYSINARSLQNFLTLRSSNKALKEMQDLAKALFDALPGEHQYLFEDCLKH”: the protein production entry was “failed”. Under “MWKRLLIVSAVSAAMSSMALAAPLTVGFSQVGSESGWRAAETNVAKSEAEKRGITLKIADGQQKQENQIKAVRSFVAQGVDAIFIAPVVATGWEPVLKEAKDAEIPVFLLDRSIDVKDKSLYMTTVTADNILEGKLIGDWLVKEVNGKPCNVVELQGTVGASVAIDRKKGFAEAIKNAPNIKIIRSQSGDFTRSKGKEVMESFIKAENNGKNICMVYAHNDDMVIGAIQAIKEAGLKPGKDILTGSIDGVPDIYKAMMDGEANASVELTPNMAGPAFDALEKYKKDGTMPEKLTLTKSTLYLPDTAKEELEKKKNMGY” stands “failed”; under “MWKRTITVPAPYDFAHVLDRLSLDPLMAVDVERQRITVPLHLDGLKIPVVIESIGTKEAPRFVVLAPHSNRQEDILERVSHLFQWQTPLAPVYDHFRTTELAPLFARYEGLPLVLDFDLYFCLMKCFIHQQLHLKVGYRLTERFVKTFGEERDGVWFYPRPEDIAARSYDDLRALQLSRRKAEYIVDVSRLIADGTLRLDDLEQMEDGEVMERLTAIRGIGPWTVQNFLLFGLGRPNVFPPADIGLQRAVERLFQLPKRPTASELALLGERWKPYTSYAALYLWRSIE”, “failed”.

Regarding “MWLMSHDMLAIIWFGLWGVIWTVYFILDGYALGNGMIFPFVTKDRQERNQLQEAIGPFWGGNEVWLITAGGATFAAFPVTYANMFSYLYTPLFLVLLALFARAAGLEFMHKDDSPIWQKTCKWAFAIGSFLIAFLFGVTFANLYYGLQIGKNGYEGNLLSLLNHYGILGGLFFTAIFVVSGALWVMIKTTGEVSDRAYKIARPFSMAAAIILAIFYVATANRTNLFQNFTEYPVLFILPVLAMLMSVLALIMVYKHKIGLAFTFVCLTIAMFMTTGFAGMFPRMLPSRINDAYSTTLYNAAGSQLNLKIMFFVAMVMVPIVIGYQLWSYSIFKNKIHKDSAKGYH”, the protein production entry is given as “failed”. Under “MWLYYLQVVMDMRVYVEGYGCVLNTADTEIIKNSLKKHGFEVVNNLEEADIAIINTCVVRLETENRMIYRINELKNLGKEVVVAGCLPKALKNKVKGFLHIYPREAHKAGEILKNYVEKHYRMPYIEEDINKTLYKKLDYLKPSLITPLPICEGCIGNCSYCIVKIARGGLISYPREKIVNKAKELINKGAKCLLITAQDTACYGFDIGDNLANLLNELTQIKGEFIMRVGMMHAKNAELILDELIEVYQNEKVGKFLHLPLQSGDDEILKRMKRGYTVDEFKDIVNEFRRKIKNLCFTTDIIVGFPGETEEQFQNTLEVLRELKPDYIHGAKYSQRKGTEAAKMKQIDTKIRKRRSEILDKLRRELSYLNNKKYIGKAMKVLVLDEGKGYTDNFKVVKFEGGEVGEFRKVKITDAKTFGLKGELILLEHHHHHH” stands “not failed”; under “MWMPPRPEEVARKLRRLGFVERMAKGGHRLYTHPDGRIVVVPFHSGELPKGTFKRILRDAGLTEEEFHNL”, “not failed”. Under “MWSVTGALTVAVPPTAAACRTKPFLISSSFPKQTKKLHLSSPSLSLPSSHFSSSFKTAATSIEQQSSVNKGESTKYHFLVANAKFMLDEEEHFQEQLFERLRYFGERELVQDFWLVIEPKFLDNFPKITQRLRRPAVALVSTNGTWITFMKLRLDRVLYDSFEATSLDEALASNPTTLEFDKPKNWVAPYPKYEPGWWDTFLPKVTQESAV” stands “failed”; under “MWTYSEYIIFFGIYSFIGWVLETIFASVNDKKIVNRGFLTGFFCPIYGFGAILTVQCSRMVGLSFKNPIISLISSVIFSIFLVTFLEYVTGFILEAIFNCKWWDYSNDAANIHGYICLKYSLLWGMLAFLLVQTIHPLISKMVFNISATTKEKVSIFLLVYFMIDTIKSVIDALNLRQAIMEYSNFSINKYRERILKYKRLIIAFPRLIILNRDIRRIVNDRFYKIKLEIKSKIQELF”, “failed”; under “MWYTVQPGDSLYTISQRFGVTIAQIKSANQLTSDIIYVGQRLYIPIGIQAPVVYTVRPGDTLYLIARRYNTTVDSLMALNNLSSTELRIGQQLTIPLYTEAVVNVGTANIRRGPGTNFGIITRMTNGARLPVIGFSNNWYQVRLYNGREGWISGSIVTRNVYSGRRPITGVLGFYTLEEGPTLPSSFTSFANNTGQLSSTALFMFRISAANPTTIEKFGEFTDQDVRNLVAIAHRNNVKIMPVVHNLLYRPGGTTLAKNVVKTLVSDPRNRNAFALNLVNLIERYGFDGVNIDIEDVFIEDSDNLSLLYTEISEVLRPRGYFFSASVPSRVSDEPFNPFSDPFNYSVIGRAVDEFVVMLYNEFGWPGSPPGPAVTIGWMERVLRYTMSKMPRDKIMAAVSVFGFDFNLTTGRNTYVTYQSAINLARRYNSEIIFNEERQTPMFTYRDAQGNQHEVWFEDARSLRSKIQLAWELGIKGVALWRLGMEDPNIWPMLRNEVVVRKF”, “failed”. Under “MWYYFQPKRLCHNSFMIPEKLLTYTKTIFEYSHSTVYIKDKNFHYQYMNNRGLKQLQLQEKDIMGMPDKALPFGKYAHFYNSHDYSAMEEIIYFQLDDCITKNGEKIFALSHKLPLKDEDGKTHGVIGFTKFMNLHQLMNNLNSKNTFLTPNLKINVNVDDWLKTTINLSRREMEVLYYFLQGKSIKLIAPLLHITERTVIFHLNNIKSKWGCYNKEDIYTKSFEKGLKNLTIIWDLLAMRS” stands “failed”. On to “MYAGRRDPSHVGIVMVGSPATATLILNDKVVVDLEGETLRLENGDAIALRPQAFAVLRHLVQNANRLVSKAELLEAVWGGAAVTDDSLVQCIHEIRRALGDERYAVLATVSRRGYRLSLERSDESALGGPSIAVLPFATMSGGEPNDYFADGLVEDIITNLSKIPGLFVIARNSSFGFRGEKADLRTIAAELRVRYLLQGSLRQSGGRLRIYAQLVDGASATHVWADRFEGAATDVFDLQDRLTEQIVGSIEPSVRRAEIERAHRKRPESLDAYDLYLRALPHAHANTPAQTDKALQLLARSIELQPDYVAAHGYAAWCYEQRYLRNGLDPADKAAALSHADIALGINSDDPQAMSIGAFVRANLTRDYDAAVEVLDRALAWNNNSTLAFGFSALVSAHSERHQRAVEHAHKALRLSPLDDPLSYHPYCALALTHLFAGAFADAARYAALAVRANPGFSIPYAYLAASHVGLGNVEAAHSAARRLIEVAPNFSVGGYVRTNLFQPYLMDALAAALRKAGLPE”, for which the protein production entry was “failed”. The same measure for “MYCRMEFNFFMNDVVQMARKEMVESGYDQLTTPEEVDEVLKEKGTVLVMVNSVCGCAGGIARPAAAYMKNYDKKPDRFVTVFAGQDKEATARAREYFKGYAPSSPSFALLKDGEIQMMVERHEIEGHEPIQVVQKLEKAFDQYCS”: “failed”; for “MYCWNPELYAFSSSAQKSWGIELLTKFPLKGNERVLDVGCGDGKLSAEIAKRLPEGSVLGIDLSEAMVCFAKNHYPKEQFPNLSFMLMDAGNVPFESEFDVIFSNAALHWIKEPKAIETVLKGFLKSLRPEGKLLAQFGGRGNAAEVLLVLNSMLEDEKWSPYFGNFVFPYGFYGPEEYGKWLKNAGFSVRRAELYSKDMTLKGKEGLSGWFASTWHPFTQRVPENLKEEFIDELAVNFIKLHPLDNEGYVHIRMVRLEIEADIEK”: “failed”; for “MYEDNAACIAQLKDGYIKGDRTKHILPKFFFTHDLQKSGDVRVLQIRSNDNLSDLFTKALPTATFKKLVYRIGLRRLKDLDEYTHKGE”: “failed”. As to “MYEIKGHHHISMVTKNANENNHFYKNVLGLRRVKMTVNQDDPSMYHLFYGDKTGSPGTELSFFEIPLVGRTYRGTNAITRIGLLVPSEDSLHYWKERFEKFDVKHSEMTTYANRPALQFEDAEGLRLVLLVSNGEKVEHWETWEKSEVPAKHQIQGMGSVELTVRRLDKMASTLTEIFGYTEVSRNDQEAIFQSIKGEAFGEIVVKYLDGPTEKPGRGSIHHLAIRVKNDAELAYWEEQVKQRGFHSSGIIDRFYFKSLYFRESNGILFEIATDGPGFTVDGDVEHLGEKLDLPPFLEDQRAEIEANLAPIEEK”, the protein production entry is reported as “not failed”.

As for “MYELVSPVNPLAVLRYIGHLLLVFSAVLLVPVLAAFVLGETDAAVIYGSSALVTAGTGFLLQKVLPDFELEIKEALILAALTFPLCSLVSAVPMAFSTGMPFLDAYFECVSGLTTTGLSLAPPSPTRLFFFTRSWLQWIGGIGIIVLVLGILIRPGTTAFRLYRVNFGESRIRPSVITTARTLGTVYLVLTLLSLLLLLFSGMPFYDAVCHTLSSISTGGFSTQAGSIGAYGGFLIPFLITVSCIMGAISFSLYPEVLKEPGTLIRDPQVRYLFGLSLLGTALFVLTLSGGEGGPELFHMMPDAVFQVVSALTGTGFSTIDLAPLSDASKGFLSAIMCIGGSIGSTTGGIKLFRLIVIVQLIKLVFYRFFLPREAITPLKVKSQVVDPDDFYRIMTYVLLYLAVLVFSAFIFMFYGINSADAIFETSSALATAGLSTGVTTPGMPSLLKLVLCADMLLGRVEIVPLFILLLPRTWFEINRNTGEKRSSKDTA”, the protein production result is on record as “failed”.

As for “MYENKIVPLQMDRRKYLQSCVENMSITFVLFGTINIFFNLLINLINIGRINYEHFFKLFSITSGLWIVIILVQITSYLFSSGFFENLATIFLHDNERNKGDIWNIKSIGMFLINIITLGWLSIFSFYGIFSYIINSFDLINNFMLSTTILNFSVNLLFVLNQFLYFLFKVHEIRNIEFHNCLIHFLPGFSRMLESIVLTVKSKIMDNLSKNKNFVKAKNKKRFIDHNSYPYGDQ”, the protein production entry is “failed”. Under “MYFLLNLVGLIVIMAVVFLCSPQKKKIKWRPIITLIVLELLITWFMLGTKVGSWAIGKIGDFFTWLIACASDGIAFAFPSVMANETVDFFFSALLPIIFIVTFFDILTYFGILPWLIDKIGWVISKASRLPKLESFFSIQMMFLGNTEALAVIRQQLTVLSNNRLLTFGLMSMSSISGSIIGSYLSMVPATYVFTAIPLNCLNALIIANLLNPVHVPEDEDIIYTPPKEEKKDFFSTISNSMLVGMNMVIVILAMVIGYVALTSAVNGILGVFVHGLTNQTIFAYLFSPFAFLLGLPVHDAMYVAQLMGMKLATNEFVAMLDLKNNLKSLPPHTVAVATTFLTSFANFSTVGMIYGTYNSILDGEKSTVIGRNVWKLLVSGIAVSLLSAAIVGLFVW” stands “failed”. The same measure for “MYHILIRKGLLNMKTVLIVGANGRVSIEATKIFLENSRFNVDLFLRNAHRIPDYASNRIKVYEGDAKNIEDLESALNNVDVVFASLSGSLDKQAETIVKAMDNKNVKRLIFVAAPGIYDELPEPFNQWNKEQFGEKLNRYRKASDIIENSDLDYTIIRPGWLTDKNENVYEITAKNETFKGTEVSRKSVASLAVQIAKNPELHSKENIGVNKPNTEGNKPAWFN”: “failed”; for “MYHVTVGISEKEYDAFAIASSQTNLLHSSKWAQVKSNWQNERLGFYKDDQLVAVASILIKSLPLGFTMLYIPRGPIMDYSNKELVNFVLKTLKNFGRKKRAVFAKFDPALLLRQYHLKEENVAEEIDESRQAIDNLKSAGAQWIGPTKAISETIQPRFQANIYTKANIEENFPKHTKRLIKDAKHRGVQIYRANIDDLPKFATVVALTENRKGVALRNENYFHQLMTIYGEDAYLYLAKVNLPKRLAQFKEQLLQIQKDLSETPSHQKSRLTRLNQQEASVKQYILEFQEFSKKYPDEPVIAGILSIRFGNVLEMLYAGMDDSFRKFYPQYLLNARVFEDAFKNDIVSANLGGVEGSLNDGLTKFKSNFNPMFEEYIGEFNLAINPLLYKLANLAYTIRKKQRHSH”: “failed”; for “MYIMNIFITDFYHRNDLLDKAEAMIANHWPAFMMGTSVDDSYWERLYDVPFSHYQFMAVLKTQTEEKVIGVINSIALPWQTNSLNDLPDEGWDRVFQLGMEAEEQQLPCHLISALSVTIDHHYRGKGIAQRLINTLKEHAKKQGYLGVAVPVRPTLKHCYPLHSFAEYCQWKNDNDEPFDPWIRTHWRL”: “failed”.
